According to PMC7948469:

Assays:
[1] = biological target: plasminogen-binding group A streptococcal M-protein (Streptococcus pyogenes (GAS isolate AP53)); assay: SPR; PAM amine-coupled on a CM-5 chip (up to 250 RU); Pg flowed at 0-50 nM (hPg[D219N] up to 300 nM); 25 °C; HBS-EP+ (10 mM Na-Hepes/150 mM NaCl/3 mM EDTA/0.05% polysorbate 20, pH 7.4); 1:1 Langmuir fit; KD from koff/kon
[2] = biological target: human plasminogen (human); assay: SPR; each Pg amine-coupled on a CM-5 chip (~1200 RU); SK1 flowed at 0-0.25 uM, SK2b at 0-2 uM; 25 °C; HBS-EP+ with 50 uM p-nitrophenyl-p'-guanidinobenzoate; 1:1 Langmuir fit; KD from koff/kon
[3] = biological target: mHC-hLC (mouse heavy chain-human light chain) chimeric plasminogen (mouse | human) (UniProt P00747); assay: as above
[4] = biological target: mouse plasminogen (mouse); assay: as above
[5] = biological target: hPg[D219N] (human Pg with a [D219N] mutation) (human); assay: as above
[6] = biological target: hHC-mLC (human heavy chain-mouse light chain) chimeric plasminogen (human | mouse) (UniProt P00747); assay: as above
[7] = biological target: human plasminogen (human)
[8] = biological target: mHC-hLC (mouse heavy chain-human light chain) chimeric plasminogen (mouse | human) (UniProt P00747)
[9] = biological target: hPg[D219N] (human Pg with a [D219N] mutation) (human)

Chain of plasminogen-binding group A streptococcal M-protein (Streptococcus pyogenes (GAS isolate AP53)) (P49054 30-380 limits assumed): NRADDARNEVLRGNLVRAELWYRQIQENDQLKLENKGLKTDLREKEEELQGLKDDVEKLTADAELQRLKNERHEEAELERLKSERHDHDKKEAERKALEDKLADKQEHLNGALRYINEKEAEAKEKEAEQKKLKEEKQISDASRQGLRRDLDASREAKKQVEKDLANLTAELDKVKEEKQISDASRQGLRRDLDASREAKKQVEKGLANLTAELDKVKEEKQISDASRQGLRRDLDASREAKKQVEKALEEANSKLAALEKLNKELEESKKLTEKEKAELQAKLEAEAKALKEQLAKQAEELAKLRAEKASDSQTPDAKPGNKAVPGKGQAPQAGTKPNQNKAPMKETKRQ

Substance	Kd [1] [nM]	koff [1] [s⁻¹]	kon [1] [M⁻¹ s⁻¹]	Kd [2] [nM]	koff [2] [s⁻¹]	kon [2] [M⁻¹ s⁻¹]	Kd [3] [nM]	koff [3] [s⁻¹]	kon [3] [M⁻¹ s⁻¹]	Kd [4] [nM]	koff [4] [s⁻¹]	kon [4] [M⁻¹ s⁻¹]	Kd [5] [nM]	koff [5] [s⁻¹]	kon [5] [M⁻¹ s⁻¹]	Kd [6] [nM]	koff [6] [s⁻¹]	kon [6] [M⁻¹ s⁻¹]	other results
hHC-mLC (human heavy chain-mouse light chain) chimeric plasminogen (from UniProt P00747 20-580)	3	0.0012	390000	–	–	–	–	–	–	–	–	–	–	–	–	–	–	–	–
human plasminogen (natural protein)	2.2	0.0006	270000	–	–	–	–	–	–	–	–	–	–	–	–	–	–	–	–
mHC-hLC (mouse heavy chain-human light chain) chimeric plasminogen (from UniProt P00747 581-810)	16	0.0038	240000	–	–	–	–	–	–	–	–	–	–	–	–	–	–	–	–
mouse plasminogen (natural protein)	14	0.0033	260000	–	–	–	–	–	–	–	–	–	–	–	–	–	–	–	–
streptokinase SK1 (natural protein)	–	–	–	0.9	0.0015	1.65e+06	1	0.0016	1.57e+06	6.1	0.0102	1.65e+06	0.4	0.0005	1.48e+06	1.9	0.0059	3.03e+06	–
streptokinase SK2b (natural protein)	–	–	–	85	0.0015	18000	202	0.0016	8000	240	0.0016	6000	73	0.0012	17000	187	0.0014	8000	% active site formation in the SK2b-Pg complex (MUGB cleavage), with saturating PAM (5 uM) [7]: 78%; % active site formation in the SK2b-Pg complex (MUGB cleavage), without PAM [7]: 19%; % active site formation in the SK2b-Pg complex (MUGB cleavage), with saturating PAM (5 uM) [8]: 33%; % active site formation in the SK2b-Pg complex (MUGB cleavage), without PAM [8]: 18%; % active site formation in the SK2b-Pg complex (MUGB cleavage), with saturating PAM (5 uM) [9]: 86%; % active site formation in the SK2b-Pg complex (MUGB cleavage), without PAM [9]: 66%
